What all share (assay): SEC; Superose-6 10/300 GL (FPLC) in 25 mM Na-PIPES pH 7.2, 140 mM NaCl, 2 mM DTT, 0.026% C12E10; oligomeric state judged from the peak position against wild-type mPiezo1
For test [1], the target named is mPiezo1-ΔL15-16 (657-677) (mouse) (UniProt E2JF22).
For test [2], the target named is mPiezo1-ΔL19-20 (870–921) (mouse) (UniProt E2JF22).
Another test addresses mouse Piezo1 (mouse) (UniProt E2JF22). The settings on record: remark: other sources report otherwise.

The values below come from publication PMC5880808, “A lever-like transduction pathway for long-distance chemical- and mechano-gating of the mechanosensitive Piezo1 channel” (Nature Communications, 2018).

In general, stoichiometry N refers to a count of units in the complex or per binding partner. Turning to “mPiezo1-ΔL15-16 (657-677), E2JF22 1-656; E2JF22 678-2547”, in test [1], the stoichiometry N is 3.

The substance “mPiezo1-ΔL19-20 (870–921), E2JF22 1-869; E2JF22 922-2547” registered a stoichiometry N in test [2] of 3. In the test with mouse Piezo1 (mouse), mouse Piezo1, E2JF22 1-2547 came in with a stoichiometry N of 3.
